From US20250339569A1 (3B PHARMACEUTICALS, published 2025)
Starred links: 1 amine or outer side, 2 acyl side, 3 side chain; linkers in the order of their positions; H or OH if unused. Positions of bridges follow the written chain, without caps; N, C: chain ends. Non-standard residues stand in square brackets, D forms with d. Primed or numbered codes have the meaning given here. No end group written: not given here. *: point of attachment. Aph(SaPr) = 4-amino-L-phenylalanine, ring amine acylated by 3-sulfamoylpropanoic acid, NS(=O)(=O)CCC(=O)Nc1ccc(C[C@H](N[*:1])C(=O)[*:2])cc1; Ttds = 1,13-diamino-4,7,10-trioxatridecan-succinamic acid spacer, NCCCOCCOCCOCCCNC(=O)CCC(=O)*; Phe(3-NHCO(CH2)3SO2NH2) = N[C@@H](Cc1cccc(NC(=O)CCCS(N)(=O)=O)c1)C(=O)O; APAc″ = 2-(4-(amino)piperidin-1-yl)acetic acid, NC1CCN(CC(=O)*)CC1; DOTA = O=C(O)CN1CCN(CC(=O)O)CCN(CC(=O)*)CCN(CC(=O)O)CC1; PPAc = 4-carboxymethyl piperazine linker; mXylylene = c1cc(C[*:1])cc(C[*:2])c1; tBuAla = CC(C)(C)C[C@H](N)C(=O)O; Pen = CC(C)(S)[C@H](N)C(=O)O; Tle = CC(C)(C)[C@H](N)C(=O)O; 3Amb = NCc1cccc(C(=O)O)c1; PPAc″ = not defined here; Dab = NCC[C@H](N)C(=O)O; Cmp = not defined here; Dap = NC[C@H](N)C(=O)O; Rni = not defined here

B1: 3BP-4505 (peptide)
peptide: {DOTA}-ECE[dP]D[Aph(SaPr)]LTW[Dap]C-NH2
modifications: lactam 1-10; linker 2-11 via mXylylene
SMILES: CC(C)C[C@@H]1NC(=O)[C@H](Cc2ccc(NC(=O)CCS(N)(=O)=O)cc2)NC(=O)[C@H](CC(=O)O)NC(=O)[C@H]2CCCN2C(=O)[C@H](CCC(=O)O)NC(=O)[C@@H]2CSCc3cccc(c3)CSC[C@@H](C(N)=O)NC(=O)[C@H](CNC(=O)CC[C@H](NC(=O)CN3CCN(CC(=O)O)CCN(CC(=O)O)CCN(CC(=O)O)CC3)C(=O)N2)NC(=O)[C@H](Cc2c[nH]c3ccccc23)NC(=O)[C@H]([C@@H](C)O)NC1=O
B2: 3BP-3063 (peptide)
peptide: Ac-VY[Pen]EGDWLTWQC-NH2
modifications: linker 3-12 via mXylylene
SMILES: CC(=O)N[C@H](C(=O)N[C@@H](Cc1ccc(O)cc1)C(=O)N[C@@H]1C(=O)N[C@@H](CCC(=O)O)C(=O)NCC(=O)N[C@@H](CC(=O)O)C(=O)N[C@@H](Cc2c[nH]c3ccccc23)C(=O)N[C@@H](CC(C)C)C(=O)N[C@@H]([C@@H](C)O)C(=O)N[C@@H](Cc2c[nH]c3ccccc23)C(=O)N[C@@H](CCC(N)=O)C(=O)N[C@H](C(N)=O)CSCc2cccc(c2)CSC1(C)C)C(C)C
B3: 3BP-3066 (peptide)
peptide: Ac-VYCEGDW[Tle]TWQC-NH2
modifications: linker 3-12 via mXylylene
SMILES: CC(=O)N[C@H](C(=O)N[C@@H](Cc1ccc(O)cc1)C(=O)N[C@H]1CSCc2cccc(c2)CSC[C@@H](C(N)=O)NC(=O)[C@H](CCC(N)=O)NC(=O)[C@H](Cc2c[nH]c3ccccc23)NC(=O)[C@H]([C@@H](C)O)NC(=O)[C@H](C(C)(C)C)NC(=O)[C@H](Cc2c[nH]c3ccccc23)NC(=O)[C@H](CC(=O)O)NC(=O)CNC(=O)[C@H](CCC(=O)O)NC1=O)C(C)C
notes: also called Ac-Val-Tyr-[Cys(3MeBn)-Glu-Gly-Asp-Trp-Tle-Thr-Trp-Gln-Cys]-NH2
B4: 3BP-4260 (peptide)
peptide: {DOTA-3Amb}-DCE[dP]DWLTW[Dap]C-NH2
modifications: lactam 10-1; linker 2-11 via mXylylene
SMILES: CC(C)C[C@@H]1NC(=O)[C@H](Cc2c[nH]c3ccccc23)NC(=O)[C@H](CC(=O)O)NC(=O)[C@H]2CCCN2C(=O)[C@H](CCC(=O)O)NC(=O)[C@@H]2CSCc3cccc(c3)CSC[C@@H](C(N)=O)NC(=O)[C@H](CNC(=O)C[C@H](NC(=O)c3cccc(CNC(=O)CN4CCN(CC(=O)O)CCN(CC(=O)O)CCN(CC(=O)O)CC4)c3)C(=O)N2)NC(=O)[C@H](Cc2c[nH]c3ccccc23)NC(=O)[C@H]([C@@H](C)O)NC1=O
B5: 3BP-4338 (peptide)
peptide: DCE[dP]DWLTW[Dap]C-NH2
modifications: lactam 1-10; linker 2-11 via mXylylene; not fully specified (N-terminus); also: indium complexed by DOTA
B6: 3BP-3899 (peptide)
peptide: Ac-VYCE[dP]DWLKWSC-NH2
modifications: linker 3-12 via mXylylene; lactam 4-9
SMILES: CC(=O)N[C@H](C(=O)N[C@@H](Cc1ccc(O)cc1)C(=O)N[C@H]1CSCc2cccc(c2)CSC[C@@H](C(N)=O)NC(=O)[C@H](CO)NC(=O)[C@H](Cc2c[nH]c3ccccc23)NC(=O)[C@@H]2CCCCNC(=O)CC[C@H](NC1=O)C(=O)N1CCC[C@@H]1C(=O)N[C@@H](CC(=O)O)C(=O)N[C@@H](Cc1c[nH]c3ccccc13)C(=O)N[C@@H](CC(C)C)C(=O)N2)C(C)C
B7: 3BP-4043 (peptide)
peptide: Ac-VYCE[dP]KWL[dD]WSC-NH2
modifications: linker 3-12 via mXylylene; lactam 6-9
SMILES: CC(=O)N[C@H](C(=O)N[C@@H](Cc1ccc(O)cc1)C(=O)N[C@H]1CSCc2cccc(c2)CSC[C@@H](C(N)=O)NC(=O)[C@H](CO)NC(=O)[C@H](Cc2c[nH]c3ccccc23)NC(=O)[C@H]2CC(=O)NCCCC[C@H](NC(=O)[C@H]3CCCN3C(=O)[C@H](CCC(=O)O)NC1=O)C(=O)N[C@@H](Cc1c[nH]c3ccccc13)C(=O)N[C@@H](CC(C)C)C(=O)N2)C(C)C
B8: 3BP-4050 (peptide)
peptide: Ac-VYCE[dP][Dab]WLDWSC-NH2
modifications: linker 3-12 via mXylylene; lactam 6-9
SMILES: CC(=O)N[C@H](C(=O)N[C@@H](Cc1ccc(O)cc1)C(=O)N[C@H]1CSCc2cccc(c2)CSC[C@@H](C(N)=O)NC(=O)[C@H](CO)NC(=O)[C@H](Cc2c[nH]c3ccccc23)NC(=O)[C@@H]2CC(=O)NCC[C@H](NC(=O)[C@H]3CCCN3C(=O)[C@H](CCC(=O)O)NC1=O)C(=O)N[C@@H](Cc1c[nH]c3ccccc13)C(=O)N[C@@H](CC(C)C)C(=O)N2)C(C)C

Biological target: human carbonic anhydrase IX (CAIX) (human, UniProt Q16790 38-459)
Assay: FACS competition, HT-29 cells, tracer 3BP-2776; pIC50 category A: >8.0
Method: (§1) CAIX-expressing human HT-29 colorectal cancer cells (DSMZ, RRID: CVCL_0320) were cultured in McCoys's 5A modified medium (Biochrom, #F1015) including 10% fetal calf serum (FCS), 2 mM L-glutamine, 100 U/ml penicillin and 100 μg/mL streptomycin. Cells were detached with Accutase (Biolegend, #423201) and washed in FACS buffer (PBS including 1% FCS). Cells were diluted in FACS buffer to a final concentration of 500.000 cells per ml. 200 μL of the cell suspension were transferred to a u-shaped non-binding 96-well plate (Greiner) and cells were washed in ice-cold FACS buffer.
(§2) When biotinylated compounds were used an additional incubation step with 1 μg/mL APC-Streptavidin (Miltenyi; #130-106-791) in 50 μL FACS buffer for 30 minutes on ice was performed.
(§3) Cells were washed twice with ice-cold FACS buffer and analyzed in an Attune NxT flow cytometer (Thermo Fisher). Median fluorescence intensities (MFI) of the APC/Cy5-channel were calculated by Attune NxT software.

Binder	pIC50
{DOTA-PPAc″}-YCE[dP]D[Phe(3-NHCO(CH2)3SO2NH2)]LTWSC-NH2 (linker 2-11 via mXylylene; reading uncertain) [3BP-4448]	> 8 pic50
{DOTA-PPAc″}-SCE[dP]D[Phe(3-NHCO(CH2)3SO2NH2)]LTWSC-NH2 (linker 2-11 via mXylylene; reading uncertain) [3BP-4450]	> 8 pic50
{DOTA-PPAc″}-RCE[dP]D[Phe(3-NHCO(CH2)3SO2NH2)]LTWSC-NH2 (linker 2-11 via mXylylene; reading uncertain) [3BP-4451]	> 8 pic50
{DOTA-Rni}-YCE[dP]D[Phe(3-NHCO(CH2)3SO2NH2)]LTWSC-NH2 (linker 2-11 via mXylylene; reading uncertain) [3BP-4455]	> 8 pic50
{DOTA-PPAc″}-YCE[dP]D[Phe(3-NHCO(CH2)3SO2NH2)][tBuAla]TWSC-NH2 (linker 2-11 via mXylylene; reading uncertain) [3BP-4449]	> 8 pic50
{DOTA-PPAc}-ECE[dP]D[Aph(SaPr)]LTW[Dap]C-NH2 (lactam 1-10; linker 2-11 via mXylylene) [3BP-4504]	> 8 pic50
B1	> 8 pic50
{DOTA-PPAc}-ECE[dP]D[Phe(3-NHCO(CH2)3SO2NH2)]LTW[Dap]C-NH2 (lactam 1-10; linker 2-11 via mXylylene) [3BP-4502]	> 8 pic50

Biological target: human carbonic anhydrase 9 (CAIX) (human, UniProt Q16790 38-459)
Assay: FACS competition on HT-29 cells against tracer 3BP-2776; pIC50 category B = pIC50 7.1-8.0
Method: as §1, §2, §3

Binder	pIC50
B2	7.1 to 8 pic50
B3	7.1 to 8 pic50

Biological target: T1, Fc-fusion protein of human carbonic anhydrase IX (human, UniProt Q16790 38-414)
Assay: SPR, captured hCAIX-Fc; t1/2 category D: <=2.0 min
Method: Stock solutions of test compounds were prepared by dissolving each compound in DMSO. DMSO stock solution were diluted 1:1000 in Running Buffer without DMSO. […] SPR binding analyses were performed in Single Cycle Kinetic (SCK) mode at 25° C.
For each test compound, SPR raw data in the form of resonance units (RU) were plotted as sensorgrams using the Biacore™ T200 control software. The signal from the blank sensorgram was subtracted from that of the test compound sensorgram (blank corrected). The blank corrected sensorgram was corrected for baseline drift by subtracting the sensorgram of a SCK run without the test compound (running buffer only). […] Raw data and fit results were imported as text files in IDBS. The pKD value (negative decadic logarithm of dissociation constant) was calculated in the IDBS excel template.

Binder	t1/2 (half-life of the complex, SPR)
{DOTA-Ttds}-VYCEGDWLTWQC-NH2 (linker 3-12 via mXylylene) [3BP-2959]	≤ 2 min
{DOTA-APAc″}-CE[dP]DWLTWSC-NH2 (linker 1-10 via mXylylene) [3BP-3858]	≤ 2 min
{DOTA-PPAc}-DCE[dP]DWLTW[Dap]C-NH2 (lactam 10-1; linker 2-11 via mXylylene) [3BP-4255]	≤ 2 min
{DOTA-Cmp}-DCE[dP]DWLTW[Dap]C-NH2 (lactam 10-1; linker 2-11 via mXylylene; reading uncertain) [3BP-4259]	≤ 2 min
B4	≤ 2 min
B5	≤ 2 min

Biological target: T1, Fc-fusion protein of human carbonic …
Assay: SPR, captured hCAIX-Fc; pKD category A: >8.0

Binder	pKD
{DOTA-Ttds}-VYCEGDWLTWQC-NH2 (linker 3-12 via mXylylene) [3BP-2959]	> 8 pkd
{DOTA-PPAc″}-YCE[dP]D[Phe(3-NHCO(CH2)3SO2NH2)]LTWSC-NH2 (linker 2-11 via mXylylene; reading uncertain) [3BP-4448]	> 8 pkd
{DOTA-Rni}-YCE[dP]D[Phe(3-NHCO(CH2)3SO2NH2)]LTWSC-NH2 (linker 2-11 via mXylylene; reading uncertain) [3BP-4455]	> 8 pkd
{DOTA-PPAc}-ECE[dP]D[Aph(SaPr)]LTW[Dap]C-NH2 (lactam 1-10; linker 2-11 via mXylylene) [3BP-4504]	> 8 pkd
B1	> 8 pkd
{DOTA-PPAc}-ECE[dP]D[Phe(3-NHCO(CH2)3SO2NH2)]LTW[Dap]C-NH2 (lactam 1-10; linker 2-11 via mXylylene) [3BP-4502]	> 8 pkd
{DOTA-APAc″}-CE[dP]DWLTWSC-NH2 (linker 1-10 via mXylylene) [3BP-3858]	> 8 pkd
{DOTA-PPAc}-DCE[dP]DWLTW[Dap]C-NH2 (lactam 10-1; linker 2-11 via mXylylene) [3BP-4255]	> 8 pkd
{DOTA-Cmp}-DCE[dP]DWLTW[Dap]C-NH2 (lactam 10-1; linker 2-11 via mXylylene; reading uncertain) [3BP-4259]	> 8 pkd
B4	> 8 pkd
B5	> 8 pkd

Biological target: T1, Fc-fusion protein of human carbonic …
Assay: SPR, captured hCAIX-Fc; t1/2 category A: >15.0 min

Binder	t1/2 (half-life of the complex, SPR)
{DOTA-PPAc″}-YCE[dP]D[Phe(3-NHCO(CH2)3SO2NH2)]LTWSC-NH2 (linker 2-11 via mXylylene; reading uncertain) [3BP-4448]	> 15 min
{DOTA-Rni}-YCE[dP]D[Phe(3-NHCO(CH2)3SO2NH2)]LTWSC-NH2 (linker 2-11 via mXylylene; reading uncertain) [3BP-4455]	> 15 min
{DOTA-PPAc}-ECE[dP]D[Aph(SaPr)]LTW[Dap]C-NH2 (lactam 1-10; linker 2-11 via mXylylene) [3BP-4504]	> 15 min
B1	> 15 min
{DOTA-PPAc}-ECE[dP]D[Phe(3-NHCO(CH2)3SO2NH2)]LTW[Dap]C-NH2 (lactam 1-10; linker 2-11 via mXylylene) [3BP-4502]	> 15 min

Biological target: human carbonic anhydrase 9 (CAIX) (human, UniProt Q16790 38-459)
Assay: FACS competition on HT-29 cells, competitor tracer 3BP-2776; category C = pIC50 6.1-7.0
Method: as §1, §2, §3

Binder	pIC50
B6	6.1 to 7 pic50
B7	6.1 to 7 pic50
B8	6.1 to 7 pic50
